From patent US7189691B2, “Methods and compositions for treating leukemia” (The Administrators of the Tulane Educational Fund, priority 2004, dated 2007) come the findings set out here.

The test system of one test is B1 leukemia cell line. Kind of test: MTT viability assay. Format: cell-based. To be noted: 72 h, differing concentrations. As for the experimental part:
All cell lines were maintained in RPMI 1640+10% FCS. 100 μl aliquots of cell suspension (5×10^5 cells/ml) were cultured in flat-bottomed 96 well plates in the presence of different concentrations of peptides. After 72 h incubation at 37° C. in humidified air containing 5% CO2, viable cell number was determined by MTT assay as follows: 10 μl of 3-[4,5-dimethylthiazol-2-yl]-2,5-diphenyl tetrazolium bromide (MTT) (5 mg/ml concentration) (Sigma) was added to each well and incubated further for 6 h. Formazan crystals that are formed during incubation were dissolved in 100 μl of acidified isopropanol. The optical density at 550 nm (which is linearly related to the number of viable cells) was measured using a plate spectrophotometer. Growth characteristics of the leukemia cell lines were also determined for cells by Trypan Blue exclusion.

The next test concerns the target T1, AF4-AF9 interaction (Homo sapiens, UniProt P42568).
T1 construct: made in house; host or cells: GST-AF4 from E. coli; AF9 by coupled in vitro transcription/translation (Promega)
T1 sequence (P42568 211-568): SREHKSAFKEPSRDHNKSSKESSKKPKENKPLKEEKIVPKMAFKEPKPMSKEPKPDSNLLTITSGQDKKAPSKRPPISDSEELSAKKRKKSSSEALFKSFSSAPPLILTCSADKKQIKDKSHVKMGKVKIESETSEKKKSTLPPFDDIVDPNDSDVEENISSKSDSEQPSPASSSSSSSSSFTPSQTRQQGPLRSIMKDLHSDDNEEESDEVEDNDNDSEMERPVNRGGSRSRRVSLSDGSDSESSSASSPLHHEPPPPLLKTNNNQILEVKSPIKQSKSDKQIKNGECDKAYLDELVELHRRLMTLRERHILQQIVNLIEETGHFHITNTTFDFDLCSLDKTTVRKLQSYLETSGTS
In words: Enzyme-linked protein binding assay, GST-AF4(749-775) and biotinylated AF9. Particulars: peptide 20 μg/ml; FIG. 2A. As for the experimental part: Next, an enzyme-linked protein binding assay was developed as a potential high throughput tool to semi-quantitatively assess the ability of various compounds to disrupt the AF4-AF9 interaction in vitro (FIGS. 2A and 2B).
GST-AF4 (749–775) SEQ ID NO: 107 was bound to glutathione-coated 96-well plates and incubated with biotinylated AF9 in conjunction with 20 μg/ml of the following peptides: • (a) Pen-[…], a fusion protein of PENETRATIN™ transporter peptide to the amino terminus of […](SEQ ID NO: 110, PFmut), • (b) Pen-[…], a fusion protein of the transporter protein PENETRATIN™ to the amino terminus of […](SEQ ID NO: 2; or PFWT), • (c) […] or […](SEQ ID NO: 111); • (d) […] or […] (SEQ ID NO: 112); • (e) […] or […](SEQ ID NO: 113), or with • (f) DMSO, or • (g) GST-Cx, a control.
The plate was washed and the retention of AF9 was determined by a colorimetric assay using streptavidin-alkaline phosphatase and pNPP as a substrate. […] At this same peptide concentration, PFmut (a) in col. […] The 10 amino acid peptide (d) in col. 6 is the smallest molecule found to have activity in vitro.

Ends that are not written are not given here.

Consider “Lys-Lys-Lys-Lys-Lys-Lys-Arg-Lys-Val-Leu-Ile-Val-Arg-Ile-Asp-Leu-Asp-Leu-Leu-Ser- (KKKKKKRKVLIVRIDLDLLS; structurally based on a fragment of the naturally occuring human and murine AF4 protein family members) [SPK4]”, for which the cell viability entry in the test with B1 leukemia cell line is “inhibits”.

LWVKIDLDLLSR [(c)]: the “AF9 binding to GST-AF4 (retention of AF9)” value (shortened to “AF9 binding to GST-AF4”) with AF4-AF9 interaction is recorded as “block AF9 binding”.

“Leu-Trp-Val-Lys-Ile-Asp-Leu-Asp-Leu-Leu- (LWVKIDLDLL; structurally based on a fragment of the naturally occuring human and murine AF4 protein family members) [(d)]”: the “AF9 binding to GST-AF4” value with AF4-AF9 interaction is listed as “block AF9 binding”.

For WVKIDLDL [(e)], in the test with AF4-AF9 interaction, the “AF9 binding to GST-AF4” value was “did not interfere with AF9 binding”.
